This test addresses human BCMA-Fc (R&D system, 193-BC-050) (human) (UniProt Q02223). Briefly: competition ELISA on coated human BCMA-Fc; antibody titrated and mixed with 200 ng/ml BAFF, bound BAFF detected, absorbance 450 nm. (In an ELISA, binding on a coated surface is turned into a signal by an enzyme label.)

Chain of human BCMA-Fc (R&D system, 193-BC-050) (human) (Q02223 1-54 limits assumed): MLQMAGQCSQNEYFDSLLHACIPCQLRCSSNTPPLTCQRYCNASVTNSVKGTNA

B1: J6MO (antibody, INN chains, looked up, V domains shown)
VH: QVQLVQSGAEVKKPGSSVKVSCKASGGTFSNYWMHWVRQAPGQGLEWMGATYRGHSDTYYNQKFKGRVTITADKSTSTAYMELSSLRSEDTAVYYCARGAIYDGYDVLDNWGQGTLVTVSS
VL: DIQMTQSPSSLSASVGDRVTITCSASQDISNYLNWYQQKPGKAPKLLIYYTSNLHSGVPSRFSGSGSGTDFTLTISSLQPEDFATYYCQQYRKLPWTFGQGTKLEIK
On to B1, for which the IC50 (read off the curve) is 4 nM.

The values above are taken from patent publication US20210284749A1.
